One assay concerns the target human CX3CR1 (human) (UniProt P49238). The assay is described as follows: cell-based or functional assay.
A further assay addresses mouse CX3CR1 (mouse) (UniProt Q9Z0D9). The assay is described as follows: cell-based or functional assay.

Sequence of human CX3CR1 (human) (P49238 whole entry): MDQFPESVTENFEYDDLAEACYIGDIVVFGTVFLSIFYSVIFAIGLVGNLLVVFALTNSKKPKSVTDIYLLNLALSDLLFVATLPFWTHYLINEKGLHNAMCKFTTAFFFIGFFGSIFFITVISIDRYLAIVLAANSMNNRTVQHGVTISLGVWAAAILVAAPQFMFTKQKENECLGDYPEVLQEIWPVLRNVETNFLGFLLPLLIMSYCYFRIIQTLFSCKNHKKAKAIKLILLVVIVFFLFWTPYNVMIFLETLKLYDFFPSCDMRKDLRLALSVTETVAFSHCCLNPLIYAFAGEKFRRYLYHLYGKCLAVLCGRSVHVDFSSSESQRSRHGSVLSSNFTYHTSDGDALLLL
Sequence of mouse CX3CR1 (mouse) (Q9Z0D9 whole entry): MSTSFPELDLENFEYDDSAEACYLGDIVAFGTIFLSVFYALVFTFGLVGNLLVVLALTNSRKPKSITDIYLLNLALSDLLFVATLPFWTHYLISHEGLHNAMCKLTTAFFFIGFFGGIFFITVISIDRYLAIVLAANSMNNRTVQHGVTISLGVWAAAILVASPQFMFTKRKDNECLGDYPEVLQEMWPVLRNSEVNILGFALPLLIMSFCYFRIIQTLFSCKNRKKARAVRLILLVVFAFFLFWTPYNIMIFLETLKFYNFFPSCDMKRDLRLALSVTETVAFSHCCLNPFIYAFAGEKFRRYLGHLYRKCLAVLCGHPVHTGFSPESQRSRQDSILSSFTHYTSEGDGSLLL

In the assay with human CX3CR1 (human), “mouse CX3CL1 (from UniProt O35188 25-337) (ligand)” returned an EC50, ERK phosphorylation in CHO K1 huCX3CR1 cells of 73 nM. Besides, the EC50, ERK phosphorylation in CHO K1 mCX3CR1 cells with mouse CX3CR1 (mouse) came out at 23 nM.

The values are drawn from patent US20240117038A1.
